Laboratory results from the supplement of paper PMC7877785.
± gives the uncertainty stated by the source.

Experiment: self-splicing fitness, log relative to wild type (ln ratio); higher = more splicing; Tetrahymena group I intron in knt gene, E. coli kanamycin selection, DiMSum; sequences stand for … in CUCUCU…GGAGGGAAAAGUUAUCAGGCAUGCACCUGGUAGCUAGUCUUUAAACCAAUAGAUUGCAUCGGUUUAAAAGGCAAGACCGUCAAAUUGCGGGAAAGGGGUCAACAGCCGUUCAGUACCAAGUCUCAGGGGAAACUUUGAGAUGGCCUUGCAAAGGGUAUGGUAAUAAGCUGACGGACAUGGUCCUAACCACGCAGCCAAGUCCUAAGUCAACAGAUCUUCUGUUGAUAUGGAUGCAGUUCACAGACUAAAUGUCGGUCGGGGAAGAUGUAUUCUUCUCAUAAGAUAUAGUCGGACCUCUCCUUAAUGGGAGCUAGCGGAUGAAGUGAUGCAACACUGGAGCCGCUGGGAACUAAUUUGUAUGCGAAAGUAUAUUGAUUAGUUUUGGAGUACUCGUGGUCG
How it was run: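 DiMSum derived fitness as the error-weighted combination of fold changes across replicates, kanamycin versus no kanamycin, normalised to wild type. E. coli BL21(DE3) held the library, which randomised all eight P1ex-region intron nucleotides within the knt kanamycin-resistance gene on pET-22b(+). Six replicate transformations grew overnight at 37°C or 30°C on LB agar with or without 25 μg/mL kanamycin, also containing 100 μg/mL carbenicillin, 50 μM IPTG and 0.2% rhamnose, and pooled colonies were amplicon-sequenced on an Illumina HiSeq 2500.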

| Sequence | self-splicing fitness (ln) (30 °C) | self-splicing fitness (ln) (37 °C) |
| --- | --- | --- |
| UUACAGCAAUAUUACGACAC | -3.53 ± 0.43 |  |
| UUACAGCAAUAUUACGACCU | -1.38 ± 0.18 | -1.25 ± 0.18 |
| UUACAGCAAUAUUACGACGG | -0.531 ± 0.097 | 0.113 ± 0.13 |
| UUACAGCAAUAUUACGAGAU | -2.96 ± 0.25 | -1.69 ± 0.24 |
| UUACAGCAAUAUUACGAGCG | -0.688 ± 0.088 | -0.631 ± 0.096 |
| UUACAGCAAUAUUACGAGGC |  | -1.85 ± 0.3 |
| UUACAGCAAUAUUACGAUAA | -0.0512 ± 0.1 | -0.232 ± 0.11 |
| UUACAGCAAUAUUACGAUAU | -1.83 ± 0.11 | -0.951 ± 0.14 |
| UUACAGCAAUAUUACGCAAC | -3.55 ± 0.33 | -2.32 ± 0.27 |
| UUACAGCAAUAUUACGCCAA | -1.35 ± 0.17 | -1.01 ± 0.17 |
| UUACAGCAAUAUUACGCUCA | -0.512 ± 0.12 | -0.224 ± 0.13 |
| UUACAGCAAUAUUACGGAAG | -3 ± 0.13 | -2.05 ± 0.14 |
| UUACAGCAAUAUUACGGACG | -0.683 ± 0.079 | -0.00562 ± 0.096 |
| UUACAGCAAUAUUACGGAGC | -3.42 ± 0.38 | -1.79 ± 0.35 |
| UUACAGCAAUAUUACGGAUU | -3.81 ± 0.24 | -2.08 ± 0.16 |
| UUACAGCAAUAUUACGGCAA | -0.112 ± 0.11 | -0.272 ± 0.12 |
| UUACAGCAAUAUUACGGCGU | -2.6 ± 0.14 | -2.57 ± 0.21 |
| UUACAGCAAUAUUACGGUCU | -0.96 ± 0.075 | -0.357 ± 0.088 |
| UUACAGCAAUAUUACGUAUG | -0.997 ± 0.054 | -0.53 ± 0.068 |
| UUACAGCAAUAUUACGUGGC | -2.87 ± 0.26 | -2.92 ± 0.34 |
| UUACAGCAAUAUUACGUGUA | -2.48 ± 0.084 | -1.48 ± 0.081 |
| UUACAGCAAUAUUACGUUCA | -0.535 ± 0.11 | 0.086 ± 0.12 |
| UUACAGCAAUAUUACGUUCU | -1.6 ± 0.13 | -1.01 ± 0.11 |
| UUAGAGCAAUAUUACGAACG | -0.913 ± 0.22 | -0.303 ± 0.19 |
| UUAGAGCAAUAUUACGAAGU | -3.03 ± 0.21 | -1.98 ± 0.28 |

| Sequence | self-splicing fitness (ln) (30 °C) | self-splicing fitness (ln) (37 °C) |
| --- | --- | --- |
| UUAGAGCAAUAUUACGACGU | -2.39 ± 0.17 | -0.776 ± 0.21 |
| UUAGAGCAAUAUUACGAGAG | -0.212 ± 0.24 | -1.7 ± 0.24 |
| UUAGAGCAAUAUUACGAUCG | -1.29 ± 0.15 | -1.67 ± 0.16 |
| UUAGAGCAAUAUUACGCACC | -3.79 ± 0.33 | -2.04 ± 0.4 |
| UUAGAGCAAUAUUACGCAUU | -3.24 ± 0.38 |  |
| UUAGAGCAAUAUUACGCGAC | -3.78 ± 0.37 |  |
| UUAGAGCAAUAUUACGCGCU | -1.84 ± 0.41 | -1.11 ± 0.47 |
| UUAGAGCAAUAUUACGCGGA | -1.29 ± 0.1 | -0.00507 ± 0.11 |
| UUAGAGCAAUAUUACGCGGU | -2.71 ± 0.25 | -2.81 ± 0.48 |
| UUAGAGCAAUAUUACGCUGA | -2.6 ± 0.21 | -0.656 ± 0.28 |
| UUAGAGCAAUAUUACGCUUG | -0.891 ± 0.11 | 0.00726 ± 0.16 |
| UUAGAGCAAUAUUACGGAGC | -3.62 ± 0.29 | -2.31 ± 0.22 |
| UUAGAGCAAUAUUACGGCAA | -0.627 ± 0.12 | -0.584 ± 0.18 |
| UUAGAGCAAUAUUACGGCUC | -3.52 ± 0.35 | -1.68 ± 0.28 |
| UUAGAGCAAUAUUACGGGCA | -2.25 ± 0.12 | -1.54 ± 0.18 |
| UUAGAGCAAUAUUACGGGUC | -3.07 ± 0.18 | -1.69 ± 0.22 |
| UUAGAGCAAUAUUACGGUCU | -3.05 ± 0.41 | -2.66 ± 0.48 |
| UUAGAGCAAUAUUACGUAAU | -2.77 ± 0.31 | -1.69 ± 0.36 |
| UUAGAGCAAUAUUACGUGCA | -2.16 ± 0.15 | -0.652 ± 0.16 |
| UUAGAGCAAUAUUACGUGCG | -1.28 ± 0.1 | -0.87 ± 0.14 |
| UUAGAGCAAUAUUACGUGGG | -3.41 ± 0.22 | -1.92 ± 0.17 |
| UUAGAGCAAUAUUACGUGUU | -4.76 ± 0.32 | -2.53 ± 0.28 |
| UUAGAGCAAUAUUACGUUAG | -0.978 ± 0.13 | 0.238 ± 0.21 |
| UUAUAGCAAUAUUACGACGC | -2.63 ± 0.45 |  |
| UUAUAGCAAUAUUACGAGAA |  | -1.51 ± 0.38 |

| Sequence | self-splicing fitness (ln) (30 °C) | self-splicing fitness (ln) (37 °C) |
| --- | --- | --- |
| UUAUAGCAAUAUUACGAGGC | -3.95 ± 0.37 | -3.71 ± 0.42 |
| UUAUAGCAAUAUUACGAGUU |  | -1.96 ± 0.2 |
| UUAUAGCAAUAUUACGAUAC |  | -1.53 ± 0.27 |
| UUAUAGCAAUAUUACGAUAU | -1.97 ± 0.13 | -0.578 ± 0.17 |
| UUAUAGCAAUAUUACGCCAU | -3.93 ± 0.31 | -3.15 ± 0.28 |
| UUAUAGCAAUAUUACGCGAC | -2.5 ± 0.19 | -1.98 ± 0.2 |
| UUAUAGCAAUAUUACGCGAG | -0.842 ± 0.11 | -0.334 ± 0.12 |
| UUAUAGCAAUAUUACGCGUU | -3.58 ± 0.16 | -2.16 ± 0.17 |
| UUAUAGCAAUAUUACGGAGC |  | -2.95 ± 0.43 |
| UUAUAGCAAUAUUACGGCAC | -2.82 ± 0.36 | -2.51 ± 0.49 |
| UUAUAGCAAUAUUACGGCAG | -0.689 ± 0.094 | -0.0118 ± 0.13 |
| UUAUAGCAAUAUUACGGCCU | -1.48 ± 0.18 | -1.09 ± 0.23 |
| UUAUAGCAAUAUUACGGGGG | -3.15 ± 0.4 |  |
| UUAUAGCAAUAUUACGGUCU | -3.22 ± 0.25 | -1.28 ± 0.22 |
| UUAUAGCAAUAUUACGGUGA | -0.606 ± 0.12 | -0.405 ± 0.14 |
| UUAUAGCAAUAUUACGGUUA | -0.941 ± 0.08 | -0.0464 ± 0.084 |
| UUAUAGCAAUAUUACGGUUG | -1.32 ± 0.12 | -0.629 ± 0.15 |
| UUAUAGCAAUAUUACGUCCG | -1.64 ± 0.17 | -1 ± 0.17 |
| UUAUAGCAAUAUUACGUGGU | -3.55 ± 0.35 | -3.15 ± 0.35 |
| UUAUAGCAAUAUUACGUUGC | -3.27 ± 0.36 | -3.07 ± 0.4 |
| UUAUAGCAAUAUUACGUUGG | -2.91 ± 0.22 | -1.86 ± 0.21 |
| UUAUAGCAAUAUUACGUUUU | -3.61 ± 0.25 | -2.64 ± 0.28 |
| UUCAAGCAAUAUUACGAAAU | -3.5 ± 0.25 | -1.43 ± 0.19 |
| UUCAAGCAAUAUUACGAGUG | -0.827 ± 0.06 | -0.257 ± 0.077 |
| UUCAAGCAAUAUUACGAUGG | -2.38 ± 0.19 | -1.95 ± 0.17 |

| Sequence | self-splicing fitness (ln) (30 °C) | self-splicing fitness (ln) (37 °C) |
| --- | --- | --- |
| UUCAAGCAAUAUUACGCGCU | -1.69 ± 0.12 | -1.44 ± 0.13 |
| UUCAAGCAAUAUUACGCUAC | -3 ± 0.25 | -1.52 ± 0.26 |
| UUCAAGCAAUAUUACGCUGC | -2.71 ± 0.3 | -1.92 ± 0.23 |
| UUCAAGCAAUAUUACGCUGG | -2.29 ± 0.13 | -3.05 ± 0.24 |
| UUCAAGCAAUAUUACGCUUA | -1.32 ± 0.096 | -1.2 ± 0.096 |
| UUCAAGCAAUAUUACGCUUG | -2.15 ± 0.35 | -1.01 ± 0.26 |
| UUCAAGCAAUAUUACGCUUU | -5.08 ± 0.41 | -2.37 ± 0.28 |
| UUCAAGCAAUAUUACGUACG | -1.19 ± 0.13 | -0.699 ± 0.21 |
| UUCAAGCAAUAUUACGUAGG | -1.53 ± 0.08 | -0.995 ± 0.13 |
| UUCAAGCAAUAUUACGUAUG | -3.21 ± 0.22 | -1.64 ± 0.17 |
| UUCAAGCAAUAUUACGUCAG | -3.43 ± 0.2 | -1.23 ± 0.14 |
| UUCAAGCAAUAUUACGUCAU | -2.97 ± 0.15 | -2.59 ± 0.13 |
| UUCAAGCAAUAUUACGUUGA | -2.77 ± 0.21 | -2.7 ± 0.21 |
| UUCCAGCAAUAUUACGAAGG | -3.8 ± 0.22 | -3.2 ± 0.37 |
| UUCCAGCAAUAUUACGAAUC | -4.37 ± 0.31 | -1.09 ± 0.41 |
| UUCCAGCAAUAUUACGACCG | -1.25 ± 0.099 | -0.758 ± 0.14 |
| UUCCAGCAAUAUUACGACUG | -3.9 ± 0.21 | -2.99 ± 0.23 |
| UUCCAGCAAUAUUACGAGAU | -3.68 ± 0.43 | -0.948 ± 0.19 |
| UUCCAGCAAUAUUACGAGGG | -3.28 ± 0.15 | -1.28 ± 0.15 |
| UUCCAGCAAUAUUACGAUCA | -1.26 ± 0.2 | -1.27 ± 0.2 |
| UUCCAGCAAUAUUACGCACG | -1.72 ± 0.086 | -0.884 ± 0.13 |
| UUCCAGCAAUAUUACGCACU | -3.48 ± 0.31 | -0.748 ± 0.16 |
| UUCCAGCAAUAUUACGCAGC | -3.77 ± 0.33 | -2.31 ± 0.35 |
